One may read the stoichiometry N as the number of molecules, sites or subunits per partner or assembly.

This data set concerns the molecule itself. In words: AUC; sedimentation velocity, Y99C MIF homotrimer at three loading concentrations, PBS, 20°C, 50,000 rpm, c(s) analysis in SEDFIT.

B1: Y99C MIF homotrimer (natural protein, human, UniProt P14174 1-115, looked up)
chain: MPMFIVNTNVPRASVPDGFLSELTQQLAQATGKPPQYIAVHVVPDQLMAFGGSSEPCALCSLHSIGKIGGAQNRSYSKLLCGLLAERLRISPDRVYINYCDMNAANVGWNNSTFA
notes: untagged; Made by site-directed mutagenesis of the WT MIF cDNA in pET-11b (construct from Pantouris et al., 2018); also called Y99C variant; homotrimeric Y99C MIF; source: E. coli BL21-Gold (DE3), pET-11b, purified (Q-Sepharose and SP flow-through, Superdex 75)
On to B1, for which the “stoichiometry N” value turned out to be 3.

(Values after PMC8893199, “A Cysteine Variant at an Allosteric Site Alters MIF Dynamics and Biological Function in Homo- and Heterotrimeric Assemblies” (Frontiers in Molecular Biosciences, 2022).)
